Assay results from patent publication US10722576 (dated 2020).
Read-outs that look alike come from different tables or passages of the source. Each block holds one binder with its values, some of them ahead of it.

Key:
Test in all cases: ELISA
human TfR-2 = target: T1, human TfR-2 (human, UniProt Q9UP52)
T1 chain: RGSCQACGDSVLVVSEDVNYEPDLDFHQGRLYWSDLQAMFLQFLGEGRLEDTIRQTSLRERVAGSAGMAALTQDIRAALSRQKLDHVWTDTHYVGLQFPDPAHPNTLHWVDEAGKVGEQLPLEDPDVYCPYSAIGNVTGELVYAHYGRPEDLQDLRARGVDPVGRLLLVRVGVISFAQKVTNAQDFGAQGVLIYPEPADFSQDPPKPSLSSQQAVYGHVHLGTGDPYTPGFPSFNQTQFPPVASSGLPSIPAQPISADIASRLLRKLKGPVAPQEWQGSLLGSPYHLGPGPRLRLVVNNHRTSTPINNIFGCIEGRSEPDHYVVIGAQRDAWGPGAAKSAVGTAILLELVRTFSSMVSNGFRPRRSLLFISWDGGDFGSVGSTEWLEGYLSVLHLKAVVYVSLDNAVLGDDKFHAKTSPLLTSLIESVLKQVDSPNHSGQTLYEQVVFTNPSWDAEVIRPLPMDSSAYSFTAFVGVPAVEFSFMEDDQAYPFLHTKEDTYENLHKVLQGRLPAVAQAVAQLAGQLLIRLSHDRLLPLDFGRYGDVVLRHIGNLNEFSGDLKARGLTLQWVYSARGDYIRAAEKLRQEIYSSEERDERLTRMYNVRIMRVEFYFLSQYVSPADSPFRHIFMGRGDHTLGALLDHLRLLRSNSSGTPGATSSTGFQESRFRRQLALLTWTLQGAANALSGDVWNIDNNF

human TfR-1 [1] = target: T2, human TfR-1 (human, UniProt P02786)
human TfR-1 [2] = target: T2, human TfR-1; remark: listed apart in the source
mouse TfR-1 [3] = target: T3, mouse TfR-1 (mouse, UniProt Q62351)
human TfR-1 [4] = target: T2, human TfR-1; remark: listed apart in the source
mouse TfR-1 [5] = target: T3, mouse TfR-1; remark: listed apart in the source

T2 sequence (P02786 89-760): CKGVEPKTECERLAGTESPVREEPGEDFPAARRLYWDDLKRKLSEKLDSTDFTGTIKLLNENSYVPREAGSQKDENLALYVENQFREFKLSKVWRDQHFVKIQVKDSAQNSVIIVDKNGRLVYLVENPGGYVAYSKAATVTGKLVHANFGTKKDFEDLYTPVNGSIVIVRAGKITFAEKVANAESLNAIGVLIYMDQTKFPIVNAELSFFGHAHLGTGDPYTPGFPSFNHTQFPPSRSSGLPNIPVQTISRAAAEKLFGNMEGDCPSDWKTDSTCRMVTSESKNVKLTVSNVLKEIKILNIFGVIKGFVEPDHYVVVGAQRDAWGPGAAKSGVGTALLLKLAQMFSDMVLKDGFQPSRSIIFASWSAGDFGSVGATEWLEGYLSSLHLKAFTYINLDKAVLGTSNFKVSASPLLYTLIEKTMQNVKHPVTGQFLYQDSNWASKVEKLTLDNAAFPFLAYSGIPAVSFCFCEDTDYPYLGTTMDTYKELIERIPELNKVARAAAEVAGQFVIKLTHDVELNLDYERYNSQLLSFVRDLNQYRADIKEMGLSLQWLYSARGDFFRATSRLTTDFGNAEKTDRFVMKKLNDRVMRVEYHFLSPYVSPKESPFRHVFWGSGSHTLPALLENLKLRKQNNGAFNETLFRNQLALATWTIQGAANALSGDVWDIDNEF
T3 sequence (Q62351 89-763): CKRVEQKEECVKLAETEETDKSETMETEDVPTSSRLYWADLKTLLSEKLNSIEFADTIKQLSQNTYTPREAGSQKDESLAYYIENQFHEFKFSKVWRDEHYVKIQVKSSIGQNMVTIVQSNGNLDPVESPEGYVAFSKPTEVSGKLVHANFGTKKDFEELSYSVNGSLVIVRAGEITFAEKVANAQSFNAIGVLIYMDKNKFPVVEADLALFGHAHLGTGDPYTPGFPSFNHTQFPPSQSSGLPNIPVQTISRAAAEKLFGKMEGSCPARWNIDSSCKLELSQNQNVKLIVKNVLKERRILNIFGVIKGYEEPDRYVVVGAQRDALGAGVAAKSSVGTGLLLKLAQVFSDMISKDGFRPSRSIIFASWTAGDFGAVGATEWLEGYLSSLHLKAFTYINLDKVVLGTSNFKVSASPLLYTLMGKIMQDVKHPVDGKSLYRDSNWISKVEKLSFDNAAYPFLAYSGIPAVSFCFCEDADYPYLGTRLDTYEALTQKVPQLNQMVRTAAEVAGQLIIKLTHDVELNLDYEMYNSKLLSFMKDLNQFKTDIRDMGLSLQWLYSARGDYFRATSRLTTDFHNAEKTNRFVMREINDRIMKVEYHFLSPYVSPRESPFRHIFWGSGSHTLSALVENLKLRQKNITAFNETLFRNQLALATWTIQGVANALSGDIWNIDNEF

binding result (human TfR-2): no binding
EC50 (human TfR-1 [1]): ~100 nM
B1: H01-Fc (designed binder)
chain: ARVDQTPQTITKETGESLTINCVLRDSNCALSSTYWYRKKSGSTKEESISKGGRYVETVNSGSKSFSLRINDLTVEDSGTYRCNVWHDLVWSVCTTDVYGGGTVVTVNAASGA

EC50 (human TfR-1 [2]): 26.3 nM
binding result (human TfR-2): no binding
EC50 (mouse TfR-1 [3]): 34.3 nM
EC50 (human TfR-1 [1]): ~100 nM
EC50 (human TfR-1 [4]): 9 nM
EC50 (mouse TfR-1 [5]): 34.2 nM
B2: F02-hFc (designed binder)
chain: ARVDQTPQTITKETGESLTINCVLRDNDCTLSSTHWYRKKSGSTNEERISKGGRYVETVNSGSKSFSLRINDLTVEDSGTYRCNVYAMTRNWWCDVYGGGTVVTVNAASGA
